From patent US20230220021A1 (UNIVERSITY OF COPENHAGEN, published 2023) come the findings set out here.

Assay [1] deals with T1, (7× His)-PSD-95-PDZ2 wild type (UniProt P78352 160-246).
T1 construct: domain: PDZ2; recombinant from E. coli; also called PSD-95-PDZ2 WT; not shown: 7x His tag
Description: FP competition.
Target sequence in this assay (P78352 160-246): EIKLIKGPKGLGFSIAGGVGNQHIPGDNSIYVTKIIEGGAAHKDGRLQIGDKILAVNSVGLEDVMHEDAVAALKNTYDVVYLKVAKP

Assay [2] addresses T1, (7× His)-PSD-95-PDZ2 wild type. Briefly: ITC, 25 °C. On the technique in general: In ITC the heat of successive injections is recorded.
Target sequence in this assay (P78352 160-246): as above
Description: Isothermal titration calorimetry (ITC). […] Proteins were dialyzed against this buffer using Amicon® Ultra-15 centrifugal filter units, with a MWCO 3000 Da.
This assay was performed on an ITC200. The instrument differential power (DP) was set to 10 and the syringe rotating speed to 600 RPM. The assay setup consisted of introducing the protein inside the cell and the peptide (titrant) on the syringe. Calorimetry was performed at 25° C. Each analysis was performed in triplicates. Furthermore, several runs of peptide into buffer were performed in order to remove injection residual heat. Runs were analyzed with Origin 7.0 software (OriginLab).
Assay [3] has the same target. Briefly: FP competition. This is another data set of the same source.
Target sequence in this assay (P78352 160-246): as above
Description: (§1) Fluorescence polarization (FP). FP assays were performed in a 384-well plate format. Fluorescence polarization was measured using a Safire 2 plate reader. The instrument Z-factor was optimized for each assay. The G-factor was calibrated to an initial milli polarization value of 20. […] Every measurement was performed in NaPI 50 mM, 50 mM NaCl and 1% BSA at pH 7.2, 25° C. […] The curves were done in triplicates. Then, the polarization was fitted into a one-site binding model using Prism software 8.0 (GraphPad), from which the Kd can be measured. […] The mili polarization (mP) values were plotted as a function of peptide concentration and fitted to a sigmoidal dose-response curve using Prism software 8.0 (GraphPad). The Kᵢ values were calculated according to Nikolovska-Coleska Z. et al.⁴⁰⁻⁴¹
For assay [4] the target is unchanged. Description: FP saturation.
In a further assay the target is T2, PSD-95-PDZ2 H225A (UniProt P78352 160-246).
T2 construct: domain: PDZ2; not shown: 7x His tag
Briefly: FP saturation.

The target of another assay is T3, PSD-95-PDZ2 V229A (UniProt P78352 160-246).
T3 construct: domain: PDZ2; not shown: 7x His tag
Description: FP saturation.

A further assay deals with T4, PSD-95-PDZ2 K165A (UniProt P78352 160-246).
T4 construct: domain: PDZ2; also called K165 mutation; not shown: 7x His tag
Briefly: FP saturation.

Another assay concerns the target T5, PSD-95-PDZ2 K168A.
T5 chain: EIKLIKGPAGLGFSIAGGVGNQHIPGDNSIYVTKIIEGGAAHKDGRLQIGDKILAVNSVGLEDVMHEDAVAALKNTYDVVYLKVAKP
Briefly: FP saturation, TAMRA probe titrated with the protein.

The target in another assay is T6, PSD-95-PDZ2 S173A.
T6 chain: T5 chain with A9K, S14A
The description is as above.

For another assay, the target named is T7, PSD-95-PDZ2 N180A.
T7 chain: T5 chain with A9K, N21A
Described as above.

Another assay has as its target T8, PSD-95-PDZ2 T192A.
T8 chain: T5 chain with A9K, T33A
The description is as above.

The next assay concerns the target T9, PSD-95-PDZ2 K193A.
T9 chain: T5 chain with A9K, K34A
The assay is described as above.

The next assay addresses T10, PSD-95-PDZ2 E226A.
T10 chain: T5 chain with A9K, E67A
Described as above.

A further assay has as its target T11, PSD-95-PDZ2 K233A.
T11 chain: T5 chain with A9K, K74A
The assay is described as above.

Changes are numbered by the printed parent chain. Names may count otherwise. Where two headings read alike, the source gives them in different places. Where no end group is shown, it is not given here. [ ]: non-standard residue; d: D form.

Description for PSD-95-PDZ2 E226A: as §1
(§2) Obtained binding affinities (Kd values) for each PSD-95-PDZ2 Ala mutants were normalized to PSD-95-PDZ2 WT values to obtain the fold change for each mutation (FIG. 8).
Description for PSD-95-PDZ2 K168A: as §1, §2
Description for PSD-95-PDZ2 K193A: as §1, §2
Description for PSD-95-PDZ2 K233A: as §1, §2
Description for PSD-95-PDZ2 N180A: as §1, §2
Description for PSD-95-PDZ2 S173A: as §1, §2
Description for PSD-95-PDZ2 T192A: as §1, §2

As usually defined, the Ki is a dissociation constant, usually derived from enzyme kinetics or from competition with a known ligand. As for TXLETTFTGDGTPKTIRVTQPGQ (cyclic; D-Pro; His(3-Me) at 106) [cyclic nNOS β-hairpin peptide His(3-Me)], the Ki in [1] was determined as 400 nM.

B1: cyclic nNOS β-hairpin peptide (WT), Cyclo-(THLETTFTGDGTPKTIRVTQpG(Qα)) (peptide)
peptide: cyclo(THLETTFTGDGTPKTIRVTQ[dP]GQ)
SMILES: CC[C@H](C)[C@@H]1NC(=O)[C@H]([C@@H](C)O)NC(=O)[C@H](CCCCN)NC(=O)[C@@H]2CCCN2C(=O)[C@H]([C@@H](C)O)NC(=O)CNC(=O)[C@H](CC(=O)O)NC(=O)CNC(=O)[C@H]([C@@H](C)O)NC(=O)[C@H](Cc2ccccc2)NC(=O)[C@H]([C@@H](C)O)NC(=O)[C@H]([C@@H](C)O)NC(=O)[C@H](CCC(=O)O)NC(=O)[C@H](CC(C)C)NC(=O)[C@H](Cc2c[nH]cn2)NC(=O)[C@H]([C@@H](C)O)NC(=O)[C@H](CCC(N)=O)NC(=O)CNC(=O)[C@H]2CCCN2C(=O)[C@H](CCC(N)=O)NC(=O)[C@H]([C@@H](C)O)NC(=O)[C@H](C(C)C)NC(=O)[C@H](CCCNC(=N)N)NC1=O
notes: also called Cyclic WT; Wild type mimic
The Kd is the free concentration of one partner at which half of the binding sites on the other are occupied at equilibrium, for simple one-to-one binding. B1: in [2], the “-ΔS*T” value turned out to be 0.35 kcal/mol, binding was put at a Kd of 2150 nM and the ΔH was -7.74 kcal/mol.

B2: cyclic nNOS β-hairpin peptide T112W G115P (peptide)
peptide: cyclo(THLETTFWGDPTPKTIRVTQ[dP]GQ)
SMILES: CC[C@H](C)[C@@H]1NC(=O)[C@H]([C@@H](C)O)NC(=O)[C@H](CCCCN)NC(=O)[C@@H]2CCCN2C(=O)[C@H]([C@@H](C)O)NC(=O)[C@@H]2CCCN2C(=O)[C@H](CC(=O)O)NC(=O)CNC(=O)[C@H](Cc2c[nH]c3ccccc23)NC(=O)[C@H](Cc2ccccc2)NC(=O)[C@H]([C@@H](C)O)NC(=O)[C@H]([C@@H](C)O)NC(=O)[C@H](CCC(=O)O)NC(=O)[C@H](CC(C)C)NC(=O)[C@H](Cc2c[nH]cn2)NC(=O)[C@H]([C@@H](C)O)NC(=O)[C@H](CCC(N)=O)NC(=O)CNC(=O)[C@H]2CCCN2C(=O)[C@H](CCC(N)=O)NC(=O)[C@H]([C@@H](C)O)NC(=O)[C@H](C(C)C)NC(=O)[C@H](CCCNC(=N)N)NC1=O
As for B2, in [3], the Ki was 950 nM.

B3: cyclic nNOS β-hairpin peptide G115P T116E (peptide)
peptide: cyclo(THLETTFTGDPEPKTIRVTQ[dP]GQ)
SMILES: CC[C@H](C)[C@@H]1NC(=O)[C@H]([C@@H](C)O)NC(=O)[C@H](CCCCN)NC(=O)[C@@H]2CCCN2C(=O)[C@H](CCC(=O)O)NC(=O)[C@@H]2CCCN2C(=O)[C@H](CC(=O)O)NC(=O)CNC(=O)[C@H]([C@@H](C)O)NC(=O)[C@H](Cc2ccccc2)NC(=O)[C@H]([C@@H](C)O)NC(=O)[C@H]([C@@H](C)O)NC(=O)[C@H](CCC(=O)O)NC(=O)[C@H](CC(C)C)NC(=O)[C@H](Cc2c[nH]cn2)NC(=O)[C@H]([C@@H](C)O)NC(=O)[C@H](CCC(N)=O)NC(=O)CNC(=O)[C@H]2CCCN2C(=O)[C@H](CCC(N)=O)NC(=O)[C@H]([C@@H](C)O)NC(=O)[C@H](C(C)C)NC(=O)[C@H](CCCNC(=N)N)NC1=O
On to B3, for which, in [3], the Ki turned out to be 22500 nM.

B4: TAMRA labelled C-terminal GluN2B peptide (KLSSIESDV-COOH) (peptide)
peptide: KLSSIESDV-OH
modifications: also: TAMRA label (site not given here)
notes: also called C-terminal GluN2B TAMRA probe; GluN2B canonical peptide
Consider B4, for which binding in assay [4] was characterised by a dissociation constant (Kd) of 4000 nM. In the assay with PSD-95-PDZ2 H225A, the “fold decrease in affinity vs PDZ2 WT” value was 5 fold. In addition, the “fold loss in affinity vs PDZ2 WT” value with PSD-95-PDZ2 V229A was 2 fold; with PSD-95-PDZ2 K165A it was 5 fold. The binding result in the assay with PSD-95-PDZ2 K168A, with PSD-95-PDZ2 S173A, with PSD-95-PDZ2 N180A, in the assay with PSD-95-PDZ2 T192A, in the assay with PSD-95-PDZ2 K193A and in the assay with PSD-95-PDZ2 E226A was “binds” each time. For the same molecule, the binding result in the assay with PSD-95-PDZ2 K233A is reported as “binds”.

Take TXLETTFTGDGTPKTIRVTQPGQ (cyclic; D-Pro; His(1-Me) at 106) [cyclic nNOS β-hairpin peptide His(1-Me)]: the Ki in assay [1] worked out at 2900 nM.

For cyclo(C(TAMRA maleimide)THLETTFTGDGTPKTIRVTQ[dP]G) (also called cyclic nNOS TAMRA probe) [cyclic nNOS β-hairpin TAMRA probe, cyclo-(CTHLETTFTGDGTPKTIRVTQpG) labelled with TAMRA], the Kd in assay [4] is 1000 nM. Also, the “fold loss in affinity vs PDZ2 WT” value with PSD-95-PDZ2 V229A turned out to be 6 fold; with PSD-95-PDZ2 K165A, 4 fold.
